Data taken from IntAct's records for PubMed 21035448.

B1: Regulator of G-protein signaling 4 (Rattus norvegicus (Rat)), P49799 (parent)
chain: MCKGLAGLPASCLRSAKDMKHRLGFLLQKSDSCEHSSSHSKKDKVVTCQRVSQEEVKKWAESLENLINHECGLAAFKAFLKSEYSEENIDFWISCEEYKKIKSPSKLSPKAKKIYNEFISVQATKEVNLDSCTREETSRNMLEPTITCFDEAQKKIFNLMEKDSYRRFLKSRFYLDLTNPSSCGAEKQKGAKSSADCTSLVPQCA
partner: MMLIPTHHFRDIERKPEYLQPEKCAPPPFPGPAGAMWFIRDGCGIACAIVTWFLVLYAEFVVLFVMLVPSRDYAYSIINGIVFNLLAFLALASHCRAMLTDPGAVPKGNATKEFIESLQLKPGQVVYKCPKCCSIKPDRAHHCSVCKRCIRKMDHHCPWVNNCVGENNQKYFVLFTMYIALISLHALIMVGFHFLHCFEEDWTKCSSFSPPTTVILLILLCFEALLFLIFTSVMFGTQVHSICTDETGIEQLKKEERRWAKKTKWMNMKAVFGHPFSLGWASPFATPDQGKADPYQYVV

Variants of: B1
Details: with zdhc3_mouse Zdhhc3, Q8R173

Row | effect of a mutation on the interaction | Variant
1 | disrupting interaction | C2S
